Measured values: patent US20250277030A1, “ANTI-NAPI2B ANTIBODIES AND METHODS OF USE” (Zymeworks BC Inc., priority 2022, published 2025)

Assays:
[1] = target: human sodium-dependent phosphate transporter 2B (NaPi2b) (human) (UniProt O95436); assay: flow cytometry competition on HEK293-6e cells expressing human NaPi2b; row antibody unlabeled at 100 µg/mL (the reference of the calculation); competitor: AF647-labeled v23855 at 1 µg/mL
[2] = target: human sodium-dependent phosphate transporter 2B (NaPi2b) (human) (UniProt O95436); assay: flow cytometry competition on HEK293-6e cells expressing human NaPi2b; row antibody unlabeled at 100 µg/mL (the reference of the calculation); competitor: AF647-labeled v18992 (MX35) at 1 µg/mL
[3] = target: human sodium-dependent phosphate transporter 2B (NaPi2b) (human) (UniProt O95436); assay: flow cytometry competition on HEK293-6e cells expressing human NaPi2b; row antibody unlabeled at 100 µg/mL (the reference of the calculation); competitor: AF647-labeled v18993 (lifastuzumab) at 1 µg/mL

Sequence of human sodium-dependent phosphate transporter 2B (NaPi2b) (human) (O95436 whole entry): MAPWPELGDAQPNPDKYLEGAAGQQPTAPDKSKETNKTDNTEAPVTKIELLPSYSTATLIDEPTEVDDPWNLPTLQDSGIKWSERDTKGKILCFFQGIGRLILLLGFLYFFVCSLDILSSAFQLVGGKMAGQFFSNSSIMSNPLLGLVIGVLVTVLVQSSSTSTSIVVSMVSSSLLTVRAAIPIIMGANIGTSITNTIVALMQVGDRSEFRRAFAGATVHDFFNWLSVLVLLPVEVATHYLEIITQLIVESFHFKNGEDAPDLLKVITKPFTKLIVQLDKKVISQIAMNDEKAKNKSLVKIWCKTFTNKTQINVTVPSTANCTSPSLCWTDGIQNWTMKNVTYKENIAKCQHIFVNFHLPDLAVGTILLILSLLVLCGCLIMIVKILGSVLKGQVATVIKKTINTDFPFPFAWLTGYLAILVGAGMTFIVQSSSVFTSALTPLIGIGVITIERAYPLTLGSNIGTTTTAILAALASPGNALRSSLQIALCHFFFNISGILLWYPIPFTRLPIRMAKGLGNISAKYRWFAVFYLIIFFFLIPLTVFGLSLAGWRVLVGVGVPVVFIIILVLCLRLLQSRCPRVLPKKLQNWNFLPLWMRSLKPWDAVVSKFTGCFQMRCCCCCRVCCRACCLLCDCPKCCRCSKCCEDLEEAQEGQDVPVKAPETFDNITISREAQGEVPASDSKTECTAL

% inhibition vs. irrelevant mAb [1]: 0% | % inhibition vs. irrelevant mAb [2]: 0% | % inhibition vs. irrelevant mAb [3]: 0%
Substance: v16955, palivizumab (anti-RSV) negative control (antibody)
